Residue numbers refer to the chain shown, from its start.
T1: human TIM-3 extracellular domain protein with hFc tag (hTIM-3-hFc) (human, UniProt Q8TDQ0 22-200)
T1 construct: not shown: human IgG Fc fragment (hFc) of the pCpC vector
T1 sequence: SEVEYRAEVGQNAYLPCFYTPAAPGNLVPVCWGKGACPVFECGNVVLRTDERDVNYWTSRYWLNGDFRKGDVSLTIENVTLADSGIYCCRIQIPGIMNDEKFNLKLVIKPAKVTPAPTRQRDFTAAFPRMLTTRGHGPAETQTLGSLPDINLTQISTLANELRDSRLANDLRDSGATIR

T2: human TIM-3, full length, on cells (human, UniProt Q8TDQ0 22-301)
T2 construct: Also used here for native TIM-3 on PBMC in the functional rows; also called CHOK1-hTIM-3; HEK293-h TIM-3
T2 sequence: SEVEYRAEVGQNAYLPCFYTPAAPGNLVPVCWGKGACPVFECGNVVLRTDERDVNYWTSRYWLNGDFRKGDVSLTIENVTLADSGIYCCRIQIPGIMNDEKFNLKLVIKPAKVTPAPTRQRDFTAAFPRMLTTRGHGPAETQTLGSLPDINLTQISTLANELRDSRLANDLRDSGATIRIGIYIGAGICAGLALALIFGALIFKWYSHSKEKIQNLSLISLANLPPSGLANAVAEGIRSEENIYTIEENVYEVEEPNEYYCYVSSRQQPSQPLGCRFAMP

B1: 7A4F10 fully human TIM-3 antibody (human IgG4, kappa) (antibody, V domains shown)
VH: EVQLLESGGGLVQPGGSLRLSCAASGFTFRTHLISWVRQAPGKGLEWVAAITGSGGSTYYADSVKGRFIISRDNSKNTLFLQMNSLRAEDTAVYYCAKDGGSGSYDDFWGQGTLVTVSS
VL: ETVLTQSPVTLSLSPGERATLSCRASQSVGSYLAWYQQKPGQAPRLLIYDASNRATGIPARFSGSGSGTDFTLTISSLEPEDFAVYYCQQRSNWPPTFGQGTKVEIK
B2: 7A4F10 (TIM-3 antibody purified from hybridoma, chimeric antibody of Example 2) (antibody, V domains shown)
VH: B1 VH
VL: B1 VL
notes: From hybridoma of Harbour H2L2 transgenic mice: human variable regions, rat constant regions
B3: 215A8F2 fully human TIM-3 antibody (human IgG4, kappa) (antibody, V domains shown)
VH: QVQLQQWGAGLLKPSETLSLTCTVYGGSFSGYYWNWIRQPPGKGLEWLGEINHSGSTNYNPSLKRRVTISVDTSKNQFSLKLSSVTAADTAVYYCARVYYYGPFDFWGQGTLVTVSS
VL: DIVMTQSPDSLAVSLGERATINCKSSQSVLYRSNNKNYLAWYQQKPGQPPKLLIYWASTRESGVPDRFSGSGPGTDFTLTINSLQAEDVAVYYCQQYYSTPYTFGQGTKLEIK
B4: 215A8F2 (TIM-3 antibody purified from hybridoma, chimeric antibody of Example 2) (antibody, V domains shown)
VH: B3 VH
VL: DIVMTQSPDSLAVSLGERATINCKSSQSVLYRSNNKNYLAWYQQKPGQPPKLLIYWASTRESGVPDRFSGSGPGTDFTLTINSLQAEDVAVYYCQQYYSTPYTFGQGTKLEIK
notes: as for B2
B5: 134H3G6 fully human TIM-3 antibody (human IgG4, kappa) (antibody, V domains shown)
VH: EVQLVESGGGLVQPGGSLRLSCAASGFTFSNSWMTWVRQAPGKGLEWVANIKQAGTEKYYVDSVKGRFTISRDNAKNSLYLQMNSLRAEDTAVYYCNSGSNYFDYWGQGTLVTVSS
VL: EIVMTQSPATLSVSPGERATLSCRARQNFYSNLAWYQQKPGQAPRLLIYGASTRATGIPARFSGSGSGTEFTLTISSLQSEDFAVYYCQQYNNWPLTFGGGTKVEIK
B6: 18D2H2 (TIM-3 antibody purified from hybridoma, chimeric antibody of Example 2) (antibody, V domains shown)
VH: EVQLVESGGDLVQPGGSLRLSCAASGFTFSTYWMTWVRQAPGRGLEWVANIKQDGSAKYYVDSVKGRFTLSRDDAKNSLYLQMNSLRAEDTAVYYCARGSNWFDYWGQGTLVTVSS
VL: B5 VL with I2T, R26N, F29V, G50D, I58F
notes: as for B2
B7: 134H3G6 (TIM-3 antibody purified from hybridoma, chimeric antibody of Example 2) (antibody, V domains shown)
VH: B5 VH
VL: B5 VL
notes: as for B2
B8: 18D2H2 fully human TIM-3 antibody (human IgG4, kappa) (antibody, V domains shown)
VH: B6 VH
VL: B5 VL with I2T, R26N, F29V, G50D, I58F
B9: 57F4E5 (TIM-3 antibody purified from hybridoma, chimeric antibody of Example 2) (antibody, V domains shown)
VH: EVQLVESGGGLVQPGGSLRLSCAASGFTFSSYWMSWVRQAPGKGLEWVANIKQDGSEKYYVDSVKGRFTISRDSAKNSLYLQMNSLRAEDTAMYFCARDSNFFDYWGQGTLVTVSS
VL: B5 VL with I2T, R26S, N28S, F29V, Y30S, Q38R, G50F, A51S
notes: as for B2

Key:
[1] = target: T1, human TIM-3 extracellular domain …; assay: FACS, blocking of hTIM-3-hFc binding to phosphatidylserine on apoptotic Jurkat cells, 0.823 nM antibody
Protocol: (§1) Jurkat cells were treated with 1 μM staurosporine at 37° C. for 2 hours to induce apoptosis. The presence of phosphatidylserine was detected by Annexin V-FITC cell apoptosis detection kit. […] The cells were washed 1-2 times with PBS buffer, and after cell counting, the cells were diluted to 1-2×10⁶ cells per milliliter with binding buffer, and added to a 96-well FACS reaction plate at 100 microliters per well. The antibody sample to be tested and 2 μg/ml hTIM-3-hFc protein were prepared with binding buffer, and mixed equally in volume. The mixture was incubated at room temperature for 30 minutes, then the FACS reaction plate incubated with apoptotic cells was centrifuged to discard the supernatant, and the above mixture was added to the apoptotic cells at 100 microliters per well and incubated at room temperature for 1 hour. The plate was washed twice with the binding buffer by centrifugation, added with 100 microliters of fluorescent (Alexa 488)-labeled secondary antibodies per well, and incubated for half an hour. The plate was washed 2-3 times with the binding buffer by centrifugation, added with 100 microliters of PBS per well to suspend cells, and detected using FACS (FACS Calibur, BD) and the results were analyzed. The results are shown in Table 15 and FIG. 15, wherein the IgG control is human IgG, and the data in the table is the inhibition rate (%).

[2] = target: T1, human TIM-3 extracellular domain …; assay: FACS, blocking of hTIM-3-hFc binding to phosphatidylserine on apoptotic Jurkat cells, 2.469 nM antibody
Protocol: as §1

[3] = target: T1, human TIM-3 extracellular domain …; assay: FACS, blocking of hTIM-3-hFc binding to phosphatidylserine on apoptotic Jurkat cells, 7.407 nM antibody
Protocol: as §1

[4] = target: T1, human TIM-3 extracellular domain …; assay: FACS, blocking of hTIM-3-hFc binding to phosphatidylserine on apoptotic Jurkat cells, 22.222 nM antibody
Protocol: as §1

[5] = target: T1, human TIM-3 extracellular domain …; assay: FACS, blocking of hTIM-3-hFc binding to phosphatidylserine on apoptotic Jurkat cells, 66.667 nM antibody
Protocol: as §1

[6] = target: T2, human TIM-3, full length, on cells; assay: FACS, CHOK1-hTIM-3 cells; antibody 40 nM
Source text: (§2) The pIRES plasmid containing the full-length nucleotide sequence encoding human TIM-3 as described in Example 1 was transfected into CHOK1 cell line to obtain a CHOK1 stable cell line containing human TIM-3 (herein referred to as CHOK1-hTIM-3 stable cell line). The pIRES plasmid containing the full-length gene of monkey TIM-3 was transfected into CHOK1 cell line to construct a CHOK1 stable cell line containing monkey TIM-3 (herein referred to as CHOK1-cTIM-3 stable cell line). The CHOK1-hTIM-3 stable cell line and CHOK1-cTIM-3 stable cell line were expanded to a confluence of 90% in a T-75 cell culture flask. The medium was aspirated, and the cells were washed with HBSS (Hanks' Balanced Salt Solution) 1-2 times, and then treated with an enzyme-free cell dissociation solution (Versene solution: Life technology) and the cells were collected. The cells were washed with HBSS buffer for 1-2 times. After counted, the cells were diluted with HBSS to 1-2×10⁶ cells per ml, added with 1% goat serum blocking solution, incubated on ice for 20-30 minutes, and then washed with HBSS by centrifugation 2 times. The collected cells were suspended in the FACS buffer (HBSS+1% BSA) to 2×10⁶ cells/ml, added as 100 microliters per well to a 96-well FACS reaction plate, added with 100 microliters per well of the antibody sample to be tested, incubated on ice for 1-2 hours. The plate was washed twice with the FACS buffer by centrifugation, added with 100 microliters of fluorescent (Alexa 488)-labeled secondary antibodies per well, and incubated on ice for 0.5-1.0 hours. The plate was washed 2-3 times with FACS buffer by centrifugation, added with 100 μl fixative solution (4% Paraformaldehyde) per well to suspend the cells. 5-10 minutes later, it was washed 1-2 times with FACS buffer by centrifugation. The cells were suspended with 100 microliters of FACS buffer, FACS (FACSCalibur, BD) was used for detection and the results were analyzed. The results are shown in FIGS. 7 and 8, Tables 7 and 8, wherein the IgG control is rat IgG, and the data in the table are the average fluorescence intensity values of the cell populations measured by MFI.

[7] = target: T2, human TIM-3, full length, on cells; assay: FACS, CHOK1-hTIM-3 cells; antibody 1.6 nM
Source text: as §2

[8] = target: T2, human TIM-3, full length, on cells; assay: FACS, CHOK1-hTIM-3 cells; antibody 0.013 nM
Source text: as §2

[9] = target: T2, human TIM-3, full length, on cells; assay: FACS, CHOK1-hTIM-3 cells; antibody 0.064 nM
Source text: as §2

[10] = target: T2, human TIM-3, full length, on cells; assay: FACS, CHOK1-hTIM-3 cells; antibody 0 nM (blank)
Source text: as §2

Binder | Inhibition ratio (%) [1] [%] | Inhibition ratio (%) [2] [%] | Inhibition ratio (%) [3] [%] | Inhibition ratio (%) [4] [%] | Inhibition ratio (%) [5] [%] | Mean fluorescence intensity [6] | Mean fluorescence intensity [7] | Mean fluorescence intensity [8] | Mean fluorescence intensity [9] | Mean fluorescence intensity [10]
B1 | 5.7 | 23.7 | 62.4 | 62.1 | 60.5 |  |  |  |  | 
B2 |  |  |  |  |  | 144 | 15.4 | 3.3 | 4.3 | 2.9
B3 | -4.4 | 5.8 | 59.5 | 61.8 | 57.2 |  |  |  |  | 
B4 |  |  |  |  |  | 610 | 214 | 8.6 | 18.7 | 3
B5 | 6.1 | 10.9 | 60.1 | 58.4 | 52.3 |  |  |  |  | 
B6 |  |  |  |  |  | 185 | 40.2 | 4.2 | 6.6 | 2.9
B7 |  |  |  |  |  | 230 | 50 | 4.7 | 8.2 | 3
B8 | 3.9 | 27.4 | 64.9 | 63.9 | 62.3 |  |  |  |  | 
B9 |  |  |  |  |  | 485 | 390 | 21.2 | 58.1 | 2.9
